Data from US20210363269A1 (ALX ONCOLOGY, published 2021).

T1: cynomolgus SIRP-α D1 domain (cyno2) (cynomolgus monkey, UniProt Q5TFQ8 30-148 (human entry), limits assumed)
T1 chain: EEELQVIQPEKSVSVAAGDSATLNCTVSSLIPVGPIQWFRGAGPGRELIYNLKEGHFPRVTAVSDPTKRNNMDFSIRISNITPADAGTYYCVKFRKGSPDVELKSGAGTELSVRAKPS

T2: high affinity SIRP-α D1 variant CV1-3
T2 chain: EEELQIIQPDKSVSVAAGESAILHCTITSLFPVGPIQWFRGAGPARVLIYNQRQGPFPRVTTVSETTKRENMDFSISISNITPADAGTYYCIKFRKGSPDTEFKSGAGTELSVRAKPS

T3: cynomolgus SIRP-α D1 domain (cyno1) (cynomolgus monkey, UniProt Q5TFQ8 30-148 (human entry), limits assumed)
T3 chain: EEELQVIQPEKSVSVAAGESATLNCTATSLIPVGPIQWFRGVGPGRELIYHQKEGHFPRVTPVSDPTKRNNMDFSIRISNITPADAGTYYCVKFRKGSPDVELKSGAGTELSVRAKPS

T4: NOD mouse SIRP-α D1 domain (mouse (NOD strain))
T4 chain: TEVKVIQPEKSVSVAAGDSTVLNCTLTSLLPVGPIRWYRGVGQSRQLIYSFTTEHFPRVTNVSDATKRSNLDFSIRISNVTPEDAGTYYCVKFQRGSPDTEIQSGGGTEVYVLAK

T5: mouse 129 SIRP-α D1 domain (mouse (129 strain), UniProt P97797 32-150)
T5 construct: also called m129
T5 chain: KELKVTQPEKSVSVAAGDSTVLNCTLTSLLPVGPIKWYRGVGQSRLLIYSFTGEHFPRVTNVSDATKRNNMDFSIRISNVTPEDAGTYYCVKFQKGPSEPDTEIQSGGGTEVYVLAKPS

T6: C57BL/6 mouse SIRP-α D1 domain (mouse (C57BL/6 strain), UniProt P97797 32-148)
T6 sequence: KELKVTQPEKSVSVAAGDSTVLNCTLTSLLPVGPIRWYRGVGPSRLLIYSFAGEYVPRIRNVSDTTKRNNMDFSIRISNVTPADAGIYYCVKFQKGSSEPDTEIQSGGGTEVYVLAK


How the values were obtained:
[1] = target: T7, human SIRP-α v2 D1 domain (human); assay: SPR, Langmuir fit
T7 construct: also called human v2
How it was run: (§1)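 Pre-filtered culture media supplied the scFv-Fc antibody clones, which were captured by anti-human IgG Fc amine-coupled (about 4000 RU) to a GLC chip on a ProteOn XPR36. SIRP analytes were flowed in PBS pH 7.4 with 0.01% Tween-20 at 25° C. Interspot and buffer-blank responses were subtracted from the data, which were then fitted to a 1:1 Langmuir model. Dissociation rate constants (koff) were derived from this fitting.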

[2] = target: T1, cynomolgus SIRP-α D1 domain (cyno2); assay: SPR, Langmuir fit
How it was run: as §1

human SIRPγ isoform 1 [3] = target: T8, human SIRPγ isoform 1 (human, UniProt Q9P1W8 29-147); assay: SPR, Langmuir fit
T8 construct: also called SIRPg; sirpg
How it was run: as §1

[4] = target: T2, high affinity SIRP-α D1 variant CV1-3; assay: SPR, Langmuir fit
How it was run: as §1

[5] = target: T3, cynomolgus SIRP-α D1 domain (cyno1); assay: SPR, Langmuir fit
How it was run: as §1

[6] = target: T9, human SIRP-α v1 D1 domain (human, UniProt P78324 31-149); assay: SPR, Langmuir fit
T9 construct: also called human v1
How it was run: as §1

human SIRPβ isoform 1 [7] = target: T10, human SIRPβ isoform 1 (human, UniProt O00241 30-148); assay: SPR, Langmuir fit
T10 construct: also called SIRPb; sirpb1
How it was run: as §1

[8] = target: T4, NOD mouse SIRP-α D1 domain; assay: SPR
How it was run: as §1

[9] = target: T5, mouse 129 SIRP-α D1 domain; assay: SPR
How it was run: as §1

[10] = target: T6, C57BL/6 mouse SIRP-α D1 domain; assay: SPR
How it was run: as §1

human SIRPγ isoform 1 [11] = target: T8, human SIRPγ isoform 1; assay: SPR
How it was run: as §1

[12] = target: T3, cynomolgus SIRP-α D1 domain (cyno1); assay: SPR
How it was run: as §1

human SIRPβ isoform 1 [13] = target: T10, human SIRPβ isoform 1; assay: SPR
How it was run: as §1

T7 sequence (chain, as listed by the source limits assumed): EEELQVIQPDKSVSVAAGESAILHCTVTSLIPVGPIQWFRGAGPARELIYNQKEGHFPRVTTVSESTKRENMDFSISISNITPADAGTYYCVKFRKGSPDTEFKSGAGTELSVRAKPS
T10 sequence (O00241 30-148 limits assumed): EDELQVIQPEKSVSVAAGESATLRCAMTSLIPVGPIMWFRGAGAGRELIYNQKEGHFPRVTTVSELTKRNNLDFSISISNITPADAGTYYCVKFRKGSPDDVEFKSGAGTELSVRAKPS
T8 sequence (Q9P1W8 29-147 limits assumed): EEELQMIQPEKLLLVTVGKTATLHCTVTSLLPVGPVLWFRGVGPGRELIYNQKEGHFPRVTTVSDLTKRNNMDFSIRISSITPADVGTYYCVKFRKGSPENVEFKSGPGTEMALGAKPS
T9 sequence (P78324 31-149 limits assumed): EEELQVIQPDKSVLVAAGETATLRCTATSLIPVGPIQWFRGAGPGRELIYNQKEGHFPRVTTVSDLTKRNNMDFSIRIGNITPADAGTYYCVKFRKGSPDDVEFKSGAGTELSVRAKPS

Binder	koff [1] [s⁻¹]	koff [2] [s⁻¹]	koff (human SIRPγ isoform 1 [3]) [s⁻¹]	koff [4] [s⁻¹]	koff [5] [s⁻¹]	koff [6] [s⁻¹]	koff (human SIRPβ isoform 1 [7]) [s⁻¹]	binding result [8]	binding result [9]	binding result [10]	binding result (human SIRPγ isoform 1 [11])	binding result [12]	binding result (human SIRPβ isoform 1 [13])
S132 (scFv, V domains shown) VH: DVQLVESGGGVVRPGESLRLSCAASGFSFRSYAMNWVRQAPGEGLEWVSRINSGGGGTDYADSVKGRFTISRDNSKNTLYLQMNSLRAEDTAVYYCAKQYDWNSFFDYWGLGALVTVSS VL: ETVLTQSPATLSVSPGERATLSCRASQTVGSKLAWHQQKPGQAPRLLIYDASNRATGIPDRFSGSGSGTDFTLTISSPQTEDSAVYYCQQYYYWPPYRFGGGTKVEIK	2.06e-05	7.12e-05	1.05e-05	7.95e-05	4.28e-05	3.34e-05	1.01e-05	no binding (tested: Koff > 5 × 10^3 (legend))	no binding (tested: Koff > 5 × 10^3 (legend))	no binding (tested: Koff > 5 × 10^3 (legend))			
S173 (scFv, V domains shown) VH: DVQLVESGGGVVRPGESLRLSCAASGFAFSDHDMSWVRQGPGEGLEWVAGISLRGGVTWYADSVKGRFTISRDNSKNTLYLRLFSLRTEDTAIYYCARESWNTFFDYWGLGTLVTVSS VL: EIVLTQSPGTLSLSPGETATLSCRASQNVRSNLAWYQQKPGQAPRLLIYDASSRATGIPDRFSGSGSGTDFTLTISSLQSEDFAVYYCQQYGNGPPLTFGGGTKVEIK	0.00504			0.00137		0.00112			no binding (tested: Koff > 5 × 10^3 (legend))	no binding (tested: Koff > 5 × 10^3 (legend))	no binding (tested: Koff > 5 × 10^3 (legend))	no binding (tested: Koff > 5 × 10^3 (legend))	no binding (tested: Koff > 5 × 10^3 (legend))
S174 (scFv, V domains shown) VH: DVQLVESGGGVVRPGESLRLSCAASGFTFSDHDMSWVRQGPGEGLEWVAGISLRGGVTWYADSVKGRFTISRDNSKNTLYLRLFSLRTEDTAIYYCARESWNTFFDYWGLGTLVTVSS VL: EIVLTQSPGTLSLSPGETATLSCRASQNVRSNLAWYQQKPGQAPRLLIYDASSRATGIPDRFSGSGSGTDFTLTISSLQSEDFAVYYCQQYGNGPPLTFGGGTKVEIK	0.00399			0.00189		0.00143			no binding (tested: Koff > 5 × 10^3 (legend))	no binding (tested: Koff > 5 × 10^3 (legend))	no binding (tested: Koff > 5 × 10^3 (legend))	no binding (tested: Koff > 5 × 10^3 (legend))	no binding (tested: Koff > 5 × 10^3 (legend))
S209 (scFv, V domains shown) VH: DVQLVESGGAVVRPGESLRLSCKASGFTFTNFAMSWVRQAPGEGLEWVSGISGSDDTTYYADSVKGRFTISRDNSESTLYLQMNSLRAEDTAVYYCVKDSTVSWNTFFDYWGLGTLVTVSS VL: ALTQPASVSANLGGTVKITCSGGYGSDDGSSSYYGWYQQKSPGSAPVILIYWDDKRPSDIPSRFSGSTSGSTTTLTITGVQAEDEAVYFCGTYDTSSGAIFGAGTTLTVL	0.00401			0.00245		0.000659	6.54e-05			no binding (tested: Koff > 5 × 10^3 (legend))	no binding (tested: Koff > 5 × 10^3 (legend))	no binding (tested: Koff > 5 × 10^3 (legend))	
